According to patent US20250092426, “CAS ENDONUCLEASES AND RELATED METHODS” (Flagship Pioneering Innovations VII, LLC, published 2025):

Molecular target: T1, CasEnd-16 (synthetic construct)
T1 chain: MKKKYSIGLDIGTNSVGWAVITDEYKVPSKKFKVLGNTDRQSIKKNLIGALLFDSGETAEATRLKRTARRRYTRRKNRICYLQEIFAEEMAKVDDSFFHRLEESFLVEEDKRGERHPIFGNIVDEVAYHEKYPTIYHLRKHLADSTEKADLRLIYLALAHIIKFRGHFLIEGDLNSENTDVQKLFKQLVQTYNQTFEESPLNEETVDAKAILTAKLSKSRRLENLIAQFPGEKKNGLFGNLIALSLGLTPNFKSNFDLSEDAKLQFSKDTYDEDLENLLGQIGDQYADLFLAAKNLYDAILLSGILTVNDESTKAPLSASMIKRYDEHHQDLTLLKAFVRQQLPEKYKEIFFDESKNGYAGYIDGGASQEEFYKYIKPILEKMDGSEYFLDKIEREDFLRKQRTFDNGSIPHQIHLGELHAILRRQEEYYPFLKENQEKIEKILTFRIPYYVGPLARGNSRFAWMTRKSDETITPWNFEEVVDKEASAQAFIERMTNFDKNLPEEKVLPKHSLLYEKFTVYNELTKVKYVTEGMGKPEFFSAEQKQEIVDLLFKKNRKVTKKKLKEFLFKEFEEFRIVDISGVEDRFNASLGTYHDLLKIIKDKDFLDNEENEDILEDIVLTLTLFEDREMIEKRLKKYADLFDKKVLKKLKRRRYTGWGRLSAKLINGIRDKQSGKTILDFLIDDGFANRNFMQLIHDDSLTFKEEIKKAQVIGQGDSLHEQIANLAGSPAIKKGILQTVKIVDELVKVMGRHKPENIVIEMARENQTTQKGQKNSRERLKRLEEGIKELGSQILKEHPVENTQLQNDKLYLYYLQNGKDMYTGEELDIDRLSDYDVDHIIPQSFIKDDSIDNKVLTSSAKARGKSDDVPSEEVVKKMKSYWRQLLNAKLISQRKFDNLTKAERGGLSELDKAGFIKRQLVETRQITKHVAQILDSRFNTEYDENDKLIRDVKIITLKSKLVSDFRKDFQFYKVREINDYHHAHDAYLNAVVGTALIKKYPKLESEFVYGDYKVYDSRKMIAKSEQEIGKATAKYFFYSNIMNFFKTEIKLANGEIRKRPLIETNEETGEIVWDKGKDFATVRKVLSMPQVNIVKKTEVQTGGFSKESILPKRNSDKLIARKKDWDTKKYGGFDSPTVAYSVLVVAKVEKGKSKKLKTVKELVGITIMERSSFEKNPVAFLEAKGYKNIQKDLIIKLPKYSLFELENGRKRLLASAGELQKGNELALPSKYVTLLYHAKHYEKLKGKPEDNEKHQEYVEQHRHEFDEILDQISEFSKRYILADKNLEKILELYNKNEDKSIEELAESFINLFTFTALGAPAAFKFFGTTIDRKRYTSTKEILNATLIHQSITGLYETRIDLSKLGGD
Test: cell_activity; +++; HEK293T; PAM not stated
How it was run: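 Editing activity was scored as the fraction of GFP+ cells on day 4 by flow cytometry. BFP-expressing HEK293T cells (250,000) received by nucleofection 200 ng plasmid for the RT-Cas fusion protein and 200 ng template RNA plasmid designed to convert BFP to GFP.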

B1: BFP-to-GFP template RNA ; BFP reporter protospacer (ssRNA ; dsDNA)
RNA: GCCGAAGCACUGCACGCCGUGUUUUAGAGCUAGAAAUAGCAAGUUAAAAUAAGGCUAGUCCGUUAUCAACUUGAAAAAGUGGCACCGAGUCGGUGCACCCUGACGUACGGCGUGCAGUGCUU
DNA 1: GCCGAAGCACTGCACGCCGT
DNA 2: ACGGCGTGCAGTGCTTCGGC
  activity: ≥ 100 % of reference
